Results: patent US20180371066A1 (C2N DIAGNOSTICS, published 2018)

How the values were obtained:
[1] = target: T1, rhesus monkey tau (rhesus monkey, UniProt P57786 2-60); assay: direct ELISA on 96-well plates coated with tau at varied concentration; OD 650nm
T1 construct: also called rhesus tau
T1 sequence: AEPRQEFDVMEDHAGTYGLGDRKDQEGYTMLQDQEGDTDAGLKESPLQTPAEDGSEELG
Procedure: FIG. 10 illustrates the binding results for different anti human tau antibodies to either human or rhesus monkey tau. Murine anti human tau antibodies HJ8.5 and HJ8.7 alongside humanized variant VH1/VK2 (also referred to as C₂N-8E12) were tested. […] In order to determine whether these amino acid difference between the two species of tau, impacts the ability of antibodies HJ8.5/C₂N-8E12 to bind the following experiment was performed. Binding of C₂N-8E12, HJ8.5 (murine precursor of C₂N-8E12), and HJ8.7 (murine anti-human tau antibody that binds to an epitope of tau where the human and rhesus amino acid sequence is 100% conserved) to human and rhesus tau by coating 96 well ELISA plates with either human or rhesus tau at various concentrations was measured. […] As expected, HJ8.7 binds to both human and rhesus tau.

[2] = target: T2, human tau (human, UniProt P10636 2-60); assay: competition ELISA on plate-coated human tau against biotinylated HJ8.5; IC50 normalised to chimeric HJ8.5; column External
T2 construct: also called soluble human tau; human tau protein

[3] = target: T2, human tau; assay: competition ELISA on plate-coated human tau against biotinylated HJ8.5; IC50 normalised to chimeric HJ8.5; column C2N Run 1
[4] = target: T2, human tau; assay: competition ELISA on plate-coated human tau against biotinylated HJ8.5; IC50 normalised to chimeric HJ8.5; column C2N Run 2

T2 sequence (P10636 2-60 limits assumed): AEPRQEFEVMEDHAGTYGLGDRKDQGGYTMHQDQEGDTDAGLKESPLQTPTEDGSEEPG

B1: VH1/VK2 humanized anti-tau antibody (C2N-8E12) (antibody, human IgG4 S228P, kappa, V domains shown)
VH: EVKVVESGGGLVQPGGSMKLSCVVSGFTFSNYWVNWVRQAPGKGLEWVAQIRLKSDNYATHYEESVKGRFTISRDDSKSSVYLQMNNLRAEDSGIYYCTNWEDYWGQGTTVTVSS
VL: DIVLTQSPDSLAVSLGERATISCRASQSVSTSRYSYIHWYQQKPGQPPKLLIKYASNLESGVPSRFSGSGSGTDFTLNIHPLEPEDFATYYCHHSWEIPLTFGQGTKLEIKR
notes: Humanized recombinant IgG4 with S241P hinge mutation, human kappa light chain; also called C2N-8EI2
- binding result [1]: no binding
- IC50 (Relative to Chimera) [2]: 0.78 relative to Chimera
- IC50 (Relative to Chimera) [3]: 1.34 relative to Chimera
- IC50 (Relative to Chimera) [4]: 0.91 relative to Chimera
